From article PMC6053597, “Coupling of polymerase and carrier lipid phosphatase prevents product inhibition in peptidoglycan synthesis” (The Cell Surface, 2018)

Tests used:
[1] = target: T1, PBP1B (Penicillin-binding protein 1B), untagged (E. coli, UniProt P02919 58-804); assay: SPR; PBP1A or PBP1B covalently immobilised via their TPase active site on a sensor chip with bound ampicillin; PgpB-ht injected at 0.125-2 μM in 10 mM Tris/maleate pH 7.5, 150 mM NaCl, 5 mM imidazole, 5 mM β-mercaptoethanol, 0.05% DDM; 25 °C, 75 μL/min; equilibrium response fitted to a 1:1 model; apparent KD; conditions: both partners purified
T1 construct: PBP1B, bifunctional GTase-TPase peptidoglycan synthase of E. coli (gene mrcB); also called untagged PBP1B; non-tagged PBP1B; source: purified as described (Bertsche et al., 2006; Typas et al., 2010)
T1 sequence: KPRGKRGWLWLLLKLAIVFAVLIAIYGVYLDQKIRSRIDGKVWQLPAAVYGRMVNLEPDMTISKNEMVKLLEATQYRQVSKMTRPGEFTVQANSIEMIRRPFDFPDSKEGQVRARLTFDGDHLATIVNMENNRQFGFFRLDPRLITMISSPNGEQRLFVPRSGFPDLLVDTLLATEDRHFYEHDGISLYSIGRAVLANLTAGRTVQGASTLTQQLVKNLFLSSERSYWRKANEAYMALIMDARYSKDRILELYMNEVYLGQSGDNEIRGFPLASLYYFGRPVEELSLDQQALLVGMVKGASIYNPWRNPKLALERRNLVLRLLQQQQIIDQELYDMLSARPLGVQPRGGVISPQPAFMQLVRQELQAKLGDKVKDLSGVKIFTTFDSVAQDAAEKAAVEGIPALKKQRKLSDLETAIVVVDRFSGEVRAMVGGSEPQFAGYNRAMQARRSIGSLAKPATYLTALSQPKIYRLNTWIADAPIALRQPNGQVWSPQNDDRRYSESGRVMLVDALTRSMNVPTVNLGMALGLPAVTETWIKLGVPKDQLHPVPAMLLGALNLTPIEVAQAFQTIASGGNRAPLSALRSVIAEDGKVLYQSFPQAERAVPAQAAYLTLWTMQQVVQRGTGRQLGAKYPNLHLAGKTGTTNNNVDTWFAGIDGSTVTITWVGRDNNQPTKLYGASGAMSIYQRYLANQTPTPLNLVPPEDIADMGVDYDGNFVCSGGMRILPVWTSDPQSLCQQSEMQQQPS

[2] = target: T1, PBP1B (Penicillin-binding protein 1B), …; assay: cell-based or functional assay

B1: PgpB-ht (C-terminal His6-tagged version of PgpB) (enzyme, E. coli)
chain: MRSIARRTAVGAALLLVMPVAVWISGWRWQPGEQSWLLKAAFWVTETVTQPWGVITHLILFGWFLWCLRFRIKAAFVLFAILAAAILVGQGVKSWIKDKVQEPRPFVIWLEKTHHIPVDEFYTLKRAERGNLVKEQLAEEKNIPQYLRSHWQKETGFAFPSGHTMFAASWALLAVGLLWPRRRTLTIAILLVWATGVMGSRLLLGMHWPRDLVVATLISWALVAVATWLAQRICGPLTPPAEENREIAQREQES
notes: PgpB, C55-PP pyrophosphatase (PAP2 family) of E. coli; amplified by PCR from genomic DNA of E. coli BW25113 and cloned into pET28a(+) (pET28a-pgpB); Purified according to Touzé et al., 2008a with modifications; also called oligohistidine tagged PgpB; source: E. coli C43(DE3), membrane fraction solubilised in DDM, purified (Ni-NTA); not shown: His6, C-terminal, kept
Question: What does the source list for B1?
Answer: Kd [1]: 1050 nM; lipid II consumption by PBP1B in proteoliposomes of artificial lipids with PgpB at a 1:1 molar ratio, with LpoB(sol), TLC (PBP1B alone: less than 20%) [2]: 63%
